{
  "source": "paper PMC13462928",
  "about": "(2026)",
  "binders": {"B1": {"name": "CRBNmidi (protein)", "chain": "MAGEGDQQDAAHNMGNHLPLLPAESEEEDEMEVEDQDSKEAKKPNIINFDTSLPTSHTYLGADMEEFHGRTLHDDDSCQVIPVLPQVMMILIPGQTLPLQLFHPQEVSMVRNLIQKDRTFAVLAYSNVQEREAQFGTTAEIYAYREEQDFGIEIVKVKAIGRQRFKVLELRTQSDGIQQAKVQILPECVLPSTMSAVQLESLNKCQIFPSKPVSREDQCSYKWWQKYQKRKFHCANLTSWPRWLYSLYDAETLMDRIKKQLREWDENLKDDSLPSNPIDFSYRVAACLPIDDVLRIQLLKIGSAIQRLRCELDIMNKCTSLCCKQCQETEITTKNEIFSLSLCGPMAAYVNPHGYVHETLTVYKACNLNLIGRPSTEHSWFPGYAWTVAQCKICASHIGWKFTATKKDMSPQKFWGLTRSALLPTIPDTEDEISPDKVILCL"}},
  "target": "NUDT5 (Homo sapiens, UniProt Q9UKK9, dNUDT5 ternary complex, engineered CRBNmidi)",
  "experiment": "proximity binding assay",
  "data": [
    {"binder": "B1", "values": [
      {"measurement": "Kd", "value": 0.34, "unit": "nM"}
    ]}
  ]
}
